Values quoted from earlier work, collected in article PMC10979101.

Molecular target: Gab2 503-524 (Homo sapiens) (UniProt Q9UQC2)
Chain of UniProt Q9UQC2 (Q9UQC2 503-524): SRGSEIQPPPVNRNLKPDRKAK

For Grb2 C-SH3 C-SH3 (from UniProt P62993), the Kd is given as 1.7 µM.
